US12304939B2, “EGFR and C-met fibronectin type III domain binding molecules” (Janssen Biotech, Inc., priority 2012, dated 2025)

Assays:
[1] = biological target: T1, recombinant EGFR extracellular domain (EGFR-Fc) (Homo sapiens, UniProt P00533); assay: EGFR-Fc affinity by surface plasmon resonance (Proteon); type: binding; conditions: SPR, 1:1 Langmuir fit; read-out: EGFR-Fc Affinity
T1 construct: purchased R&D Systems
Method: Select EGFR-binding FN3 domains were screened to identify those with slow off-rates (koff) in binding to EGFR-Fc on a ProteOn XPR-36 instrument (Bio-Rad) to facilitate selection of high affinity binders. Goat anti-human Fc IgG (R&D systems), at a concentration of 5 μg/mL, was directly immobilized via amine coupling (at pH 5.0) on all 6 ligand channels in horizontal orientation on the chip with a flow rate of 30 μL/min in PBS containing 0.005% Tween-20. The immobilization densities averaged about 1500 Response Units (RU) with less than 5% variation among different channels. EGFR-Fc was captured on the anti-human Fc IgG surface to a density around 600 RU in vertical ligand orientation. All tested FN3 domains were normalized to a concentration of 1 μM and tested for their binding in horizontal orientation. […] The dissociation phase was monitored for 10 minutes at a flow rate of 100 μL/min. […]
Binding affinity of selected EGFR-binding FN3 domains to recombinant EGFR extracellular domain was further characterized by surface Plasmon resonance methods using a Proteon Instrument (BioRad). […] The dissociation phase for all concentrations of each EGFR-binding FN3 domain was monitored at a flow rate of 100 μL/min for 30 minutes (for those with koff ˜10^−2 s^−1 from off-rate screening), or 1 hour (for those with koff ˜10^−3 s^−1 or slower). […]

EGFR on A431 cells = EGFR on A431 cells (Homo sapiens, UniProt P00533); assay: A431 cell binding assay; conditions: purified FN3 domains
[2] = biological target: EGF binding to EGFR on A431 cells (Homo sapiens, UniProt P00533); assay: A431 cell EGF competition assay; conditions: 30 ng/mL biotinylated EGF
Method: To better characterize the mechanism of EGFR binding, the ability of various identified FN3 domain clones to bind EGFR in an EGF-competitive manner was measured using A431 cells and run in parallel with the A431 binding assay screen. […] Biotinylated EGF (Invitrogen, cat. #E-3477) was added to each well for a final concentration of 30 ng/mL and incubated for 10 minutes at room temperature.
Bacterial lysates containing the FN3 domains were screened in the EGF competition assay described above.
Biotinylated EGF (Invitrogen, Cat #: E-3477) was added to each well to give a final concentration of 30 ng/mL and incubated for 10 minutes at room temperature.

EGFR = EGFR (Homo sapiens, UniProt P00533); assay: Phospho-EGFR assay: inhibition of EGF-stimulated EGFR phosphorylation (Tyr1173) in A431 cells; type: cell-based; conditions: 50 ng/mL EGF
NCI-H292 cells = assay: NCI-H292 growth assay; type: cell-based, human; conditions: 120 hours, CellTiter-Glo
Method: (§1) Inhibition of EGFR-dependent cell growth was assessed by measuring viability of the EGFR over-expressing human tumor cell lines, NCI-H292 and NCI-H322 (American Type Culture Collection, cat. #CRL-1848 & #CRL-5806, respectively), following
(§2) exposure to EGFR-binding FN3 domains. […] Cells were treated by addition of 5 μL/well of phosphate-buffered saline (PBS) containing a concentration range of EGFR-binding FN3 domains. Controls were treated with 5 μL/well of PBS only or 25 mM ethylenediaminetetraacetic acid in PBS. […] Viable cells were detected by addition of 75 μL/well of CellTiter-Glo® reagent (Promega), followed by mixing on a plate shaker for 2 minutes, and incubation in the dark at room temperature for a further 10 minutes. Plates were read on a SpectraMax M5 plate reader (Molecular Devices) set to luminescence mode, with a read time of 0.5 seconds/well against a blank of medium only. Data were plotted as a percentage of PBS-treated cell growth against the logarithm of FN3 domain molar concentration.

NCI-H322 cells = assay: NCI-H322 growth assay; type: cell-based, human; conditions: 120 hours, CellTiter-Glo
Method: as §1, §2

Kd [1]: 2.51 nM | EC50 (EGFR on A431 cells): 8.6 nM | IC50 [2]: 7.1 nM | IC50 (EGFR): 295 nM | IC50 (NCI-H292 cells): 44 nM | IC50 (NCI-H322 cells): 39 nM
B1: P54AR4-47: EGFR-binding FN3 domain, SEQ ID NO: 20 (protein)
chain: LPAPKNLVVSEVTEDSLRLSWGYNGDHFDSFLIQYQESEKVGEAINLTVPGSERSYDLTGLKPGTEYTVSIYGVHNVYKDTNMRGLPLSAEFTT
modifications: EGFR binding FN3 domain
